Assays:
[1] = tested on: activated partial thromboplastin time; experiment: Increase in APTT, bolus plus infusion model; format: in vivo, rat; set-up: Infusion Dose needed to cause 2-4 fold increase in APTT: unit not given here; conditions: intravenous bolus followed by infusion
[2] = tested on: arteriovenous shunt occlusion; experiment: Antithrombotic activity in the arteriovenous shunt model; conditions: rats, 5 min after intravenous administration
[3] = tested on: carotid artery thrombosis; experiment: Ferric chloride injury-induced thrombosis model in carotid artery; conditions: rat carotid artery, FeCl3 injury; control patency time 19 ± 1 min
Experimental: Species: Rat, male, Sprague-Dawley.
Animals were laid on a heating pad which was maintained at 37° C. The carotid artery was approached through a midline cervical incision. Carefully blunt dissection was used to expose and isolate the vessel from the carotid sheath. […] The vessel temperature was monitored for 60 minutes after application of FeCl3. […] The site of the experiment was covered with aluminum foil in order to protect the FeCl3 from degradation by light.
All the samples were kept on ice and centrifuged as soon as possible at 2000 Rpm for 10 min., 4° C. The plasma was analyzed in duplicate for activated partial thromboplastin time on a haemostasis analyzer (STAGO ST4™).
From a group of four animals, two arteries were stored at -80° C. for further analysis. The others were observed under a light microscope at 40× (Leica™) for quantification of the occlusion (complete, partial, no occlusion).
In some studies, the animal was receiving the compound by i.v. infusion instead of a bolus. In this case, the jugulars and femoral veins were cannulated with Sylastic tubing (I.D. 0.025IN). This left jugular was used for blood sampling and the right one for the infusion line. The compound was infused 30 minutes before injury and then for an other 30 minutes post-injury. Blood samples were taken at time 0, 30 and 60 minutes for APTT test and thrombin test (1 ml of blood/90 ul of citrated buffer).

B1: r-Hirudin: recombinant hirudin (HV-2), thrombin inhibitor protein of the leech Hirudo medicinalis (protein)
chain: ITYTDCTESGQNLCLCEGSNVCGKGNKCILGSNGKGNQCVTGEGTPNPESHNNGDFEEIPEEYLQ
What does the source list for B1?
Bolus Dose needed to cause 2-4 fold increase in APTT [1]: 0.15 mg/kg; Infusion Dose needed to cause 2-4 fold increase in APTT [1]: 15; ED15 (dose which causes a prolongation of the time until occlusion of the shunt by 15 min) [2]: 1.42 mg/kg; Dose to double patency time [3]: 1 mg/kg

— patent US6060451A, “Thrombin inhibitors based on the amino acid sequence of hirudin” (The National Research Council of Canada, priority 1995, dated 2000)
